Reference: the nanobody polyreactivity screen of Harvey et al. (2022)

Assay: yeast display, Sf9 membrane polyspecificity reagent, FACS + sequencing; frameworks hold sequencing errors
Summary of the method: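 After 36–48 hours of galactose induction, yeast (Saccharomyces cerevisiae BJ5465) displaying a synthetic nanobody library were stained at 4 °C for 1 hour with 10% biotinylated, detergent-solubilized Sf9 membrane reagent. Streptavidin microbeads enriched the stained cells before FACS sorting into low and high (top ~1%) gates on anti-HA and streptavidin fluorescence. Each clone's polyreactivity label reflects its gate of origin.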

| Sequence | polyreactivity (PSR sort gate) |
| --- | --- |
| QVQLVESGGGLVQAGGSLRLSCAASGSIFYRYAMGWYRQAPGKERELVAAISSNGVSTYYADSVKGRFTISRDNAKNTVYLQMTSLNPEDTAVYYCARDVYASPRLYTSRYNYWGQGTQVTVSS | low polyreactivity |
| QVQLVESGGGLVQAGGSLRLSCAASGSIFYRYAMGWYRQAPGKERELVSSISSGVSTNYADYVKGRFTISRDNAKNTVYLQINSLKREDTAVYYWAAYYRGWSSSYWFPAYNYWGQGTQVTVSS | low polyreactivity |
| QVQLVESGGGLVQAGGSLRLSCAASGSIFYRYVMGWYRQAPGKERELVAAITSTGSTYYADSVKGRFTISRDNAKNTVYLQMNSLKPEDTAVYYCNTLYARPLRDSYGYWGQGTQVTVSS | high polyreactivity |
| QVQLVESGGGLVQAGGSLRLSCAASGSIFYRYVMGWYRQAPGKERELVAVITGSGGNTYYADSVKGRFTISRDNAKNTVYLQMNSLKPEDTAVYYCAARYYTSQYGRHSRYPSEYWGQGTQVTVSS | high polyreactivity |
| QVQLVESGGGLVQAGGSLRLSCAASGSIFYSNAMGWYRQAPGKERELVAAISFTGGTTYYADSVKGRFTISRDNAKNTVYLQMNSLKPEDTAVYYCNKLYHHYYGYWGQGTQVTVSS | high polyreactivity |
| QVQLVESGGGLVQAGGSLRLSCAASGSIFYSNAMGWYRQAPGKERELVADISWSDGSTYYADSVKGRFTISRDNAKNNVYLQMNSLKPEDTAVYYCARKAGYSYFRRYDYWGQGTQVTVSS | low polyreactivity |
| QVQLVESGGGLVQAGGSLRLSCAASGSIFYSNAMGWYRQAPGKERELVATIRSGGTTYYADSVKGRFTISRDNAKNTVYLQMNSLKPEDTAVYYCANRYGVKYWGQGTQVTVSS | high polyreactivity |
| QVQLVESGGGLVQAGGSLRLSCAASGSIFYSNMGWYRPAPGKEREFVAAISGSGVRTYYADSVKGRFTISRDNAKKTVYLQMNSLKPEDTAVYYCNAGRRQDNRYNYWGQGTQVTVSS | high polyreactivity |
| QVQLVESGGGLVQAGGSLRLSCAASGSIFYSNMGWYRQAPGKEREFFAAISGSGVRTYYADSVKGRFTISRDNAKNTVYLQMNSLKPEDTAVYYCNAGRRQDFRYNYWGHGTQVTVSS | high polyreactivity |
| QVQLVESGGGLVQAGGSLRLSCAASGSIFYSNVMGWYRQAPGKESELVAAITRGGGTNYADSVKGRFTISRDNAKNTVYLQMNSLKPEDTAVYYCNRDPQKYRWIPRFDYWGQGTQVTVSS | low polyreactivity |
| QVQLVESGGGLVQAGGSLRLSCAASGSIFYSYAMGWDRQAPGKERELVAAISRIGGTTYYADSVKGRFTISRDNAKNTVYLQMNSLKPEDTAVYYCAAGPLLPRYSQYGYWGQGTQVTVSS | low polyreactivity |
| QVQLVESGGGLVQAGGSLRLSCAASGSIFYSYAMGWYRQAPGKERELVAAISSGGRTKYADSVKGRFTISRDNAKNTVYLQMNSLKPEDTAVYYCAASDRYGGRDYWGQGTQVTVSS | high polyreactivity |
| QVQLVESGGGLVQAGGSLRLSCAASGSIFYSYAMGWYRQAPGKERELVAAISWDASTYYADSVKGRFTISRDNAKNTVYLQMNSLKPEDTAVSYCNADIPYYFVYDAYDYWGQGTQVTVSS | low polyreactivity |
| QVQLVESGGGLVQAGGSLRLSCAASGSIFYSYAMGWYRQAPGKERELVAAISYRGGSTYYADSVKGRFTISRDNAKNTVYLQMNSLKPEDTAVYYCAADARQSRYNYWGQGTQVTVSS | high polyreactivity |
| QVQLVESGGGLVQAGGSLRLSCAASGSIFYSYAMGWYRQAPGKERELVADITWYGGRTYYADSVKGRFTISRDNAKNTVYLQMNSLKPEDTAVYYCAADVYLYDYWGQGTQVTISS | high polyreactivity |
| QVQLVESGGGLVQAGGSLRLSCAASGSIFYSYAMGWYRQAPGKERELVASISDGSSTYADSVKGRFTISRDNAKNTVYLQMNSLKPEDTAVYYCNADATDSYPEKDEHDSWGQGTQVTVSS | low polyreactivity |

| Sequence | polyreactivity (PSR sort gate) |
| --- | --- |
| QVQLVESGGGLVQAGGSLRLSCAASGSIFYSYAMGWYRQAPGKERELVATITRRGGSTYYADSVKGRFTISRDNAKNTVYLQMNSLKPEDTAVYYCAVKPVRYAYRIYDLRFEYWGQGTQVTVSS | high polyreactivity |
| QVQLVESGGGLVQAGGSLRLSCAASGSIFYSYDMGWYRQAPGKERELVAAIDWSGGSTYYADSVKGRFTISRDNAKNTVYLQMNSLKPEDTAVYYCAADDQVEGDYWGQGTQVTVSS | high polyreactivity |
| QVQLVESGGGLVQAGGSLRLSCAASGSIFYTNAMGWYRQAPGKERELVAAIRWSGGRTYYADSVKGRFTISRDNAKNTVFLQMNSLKPEDTAVYYCNVVVRYQSAYDYWGQGTQVTVSS | high polyreactivity |
| QVQLVESGGGLVQAGGSLRLSCAASGSIFYTNAMGWYRQAPGKERELVAAIRYSGVSTYYADSVKGRFTISRDNAKNTVYLQMNSLKPEDSAVYSCAARGHPFKKSYGSWGQGTQVTVSS | high polyreactivity |
| QVQLVESGGGLVQAGGSLRLSCAASGSIFYTNAMGWYRQAPGKERELVAAITGGGRTNYADSLKGRFTISRDNAKNTVYLQMNSLKPEDNAVYYCAARTGYRYYTGDYWGQGTQVTVSS | high polyreactivity |
| QVQLVESGGGLVQAGGSLRLSCAASGSIFYTNAMGWYRQAPGKEREMVATITSSTGSTNYADSVKGRFTISRDNAKITVYLQMNSLKPEDTAVYYCAKRDGYWVYYQMDYWGQGTQVTVSS | low polyreactivity |
| QVQLVESGGGLVQAGGSLRLSCAASGSIFYTYAMGWYRQAPGKERELVAAISRSGGSTYYADSVKGRFTISRDNAKNTVYLQMNSLKPEDTAVYYCAARPPYRVGIVPLGRREYYWGQGTQVTVSS | high polyreactivity |
| QVQLVESGGGLVQAGGSLRLSCAASGSIFYTYAMGWYRQAPGKERELVARIDYSTGNTYYADSVKGRFTISRDNAKNTVYLQMNSLKPEDTAVYYCAARDWSSFTGAYDYWGQGTQVTVSS | high polyreactivity |
| QVQLVESGGGLVQAGGSLRLSCAASGSIFYTYAMGWYRQAPGKERELVAVISYGGGRTYYADSVKGRFTISRDNAKNTVYLQMNSLKPEDTAVYYCAASYSFYAFSVPYYYWGQGSQVTVSS | high polyreactivity |
| QVQLVESGGGLVQAGGSLRLSCAASGSIFYTYVMGWYRPAPGKERELVAAISASGVRTYYADSVKGRFTISRDNAKYTFYLQMNSLKPEYTAVYFCAADRQRADYYWGQGTQVTVSS | high polyreactivity |
| QVQLVESGGGLVQAGGSLRLSCAASGSIFYTYVMGWYRPAPGKERELVAVISWSSTSTYYADSVKGRFTISRDNAKKTVYLQMNSLKPEDTAVYYCAAGVHRYRPGHGYDDGGYYWGQGTQVTVSS | low polyreactivity |
| QVQLVESGGGLVQAGGSLRLSCAASGSIFYTYVMGWYRQAPGKERELVAAITWSGGSTYYADSVKGRFTISRDNAKNTVYLQMNSLKPEDTAVYYCAAVRGYRSSKYDYWGQGTQVTVSS | high polyreactivity |
| QVQLVESGGGLVQAGGSLRLSCAASGSIFYVNAMGWSRQAPGKERELVAAITSGVSTNYADSVKGSFTISRDNAKNTVYLQMNSLKREDTAVYYSAADYTYKQLHWVIEDYWGQGTQVTVSS | low polyreactivity |
| QVQLVESGGGLVQAGGSLRLSCAASGSIFYVNAMGWYRQAPGKERELVASITASGGTTYYADSVKGRFTISRDNAKNTVYLQMNSLKPEDTAVYYCAATFIQVVVNVQLYDYDYWGQGTQVTVSS | low polyreactivity |
| QVQLVESGGGLVQAGGSLRLSCAASGSIFYVYAMGWYRQAPGKEREFVASIRTSGSSTYADSVKGRFTISRDNAKNTVYLQMNSLKPEDTAVYYCAAGSITVFWKRTGYRWRGYDYWGQGTQVTVSS | low polyreactivity |
| QVQLVESGGGLVQAGGSLRLSCAASGSIFYVYAMGWYRQAPGKERELVAAITSSGTTNYADSVKGRFTISRDNAKNTVYLQMNSLKPEDTAVYYCAADPDSGQVPFDYWGQGTQVTVSS | low polyreactivity |
